Consider nine substances from patent publication US20090162336A1.

The term Kd denotes the concentration at which binding is half-saturated. The low end stands for tighter binding, the high end for weaker binding.

In test [1] the target is taxol-stabilized microtubules made from PC tubulin. As to the kind of experiment: microtubule pelleting assay.
The target is the same in test [2]. The test is described as follows: microtubule pelleting assay, microtubules from 10 µM tubulin with 20 µM taxol.
Test [3] shares this target. As to the kind of experiment: microtubule pelleting assay, after 35 kDal kinase.
The target is the same in test [4]. The test is described as follows: microtubule pelleting assay, after 35 kDal kinase, against unphosphorylated htau23.
For test [5] the target is unchanged. The test is described as follows: microtubule pelleting assay, gel densitometry, 30 µM polymerized tubulin.
For test [6] the target is unchanged. The test is described as follows: microtubule pelleting assay, brain extract phosphorylation.

The substance “htau34 phosphorylated for 90 min with the brain extract kinase activity (stage 1) (from UniProt P10636 1-412)” came in with a fold decrease in stoichiometry upon phosphorylation in test [1] of 3 fold.

In the case of “htau23 phosphorylated with GSK3 (from UniProt P10636 1-352)”, the stoichiometry at saturation (tau per tubulin dimer) (per tubulin dimer) in test [2] was determined as 0.6.

In test [3], “htau23 phosphorylated by the 35 kDal kinase (from UniProt P10636 1-352)” displayed a Kd of 8.8 µM and a stoichiometry n (tau/tubulin dimer) (tau/tubulin dimer) of 0.21. The substance also yielded a reduction in stoichiometry upon phosphorylation (Dn) (tau/tubulin dimer) in test [4] of 0.28.

In test [3], “htau23 mutant Ser262-Ala phosphorylated by the 35 kDal kinase (from UniProt P10636 1-352)” showed a Kd of 11.6 µM and a stoichiometry n (tau/tubulin dimer) (tau/tubulin dimer) of 0.44. For the same substance, the reduction in stoichiometry upon phosphorylation (Dn) (tau/tubulin dimer) in test [4] came out at 0.05.

In test [1], “S404-A mutant of htau34 after 90 min of phosphorylation with the brain extract kinase activity (from UniProt P10636 1-412)” came in with a fold decrease in stoichiometry upon phosphorylation of 2 fold.

Regarding “bacterially expressed human tau isoform htau34, unphosphorylated (from UniProt P10636 1-412)”, the equilibrium dissociation constant (Kd) in test [5] fell in the range of 1 to 2 µM.

“htau34 phosphorylated with the brain extract kinase activity (24 hours) (from UniProt P10636 1-412)” gave a fold reduction in binding capacity against unphosphorylated htau34 in test [1] of 3 fold.

In the case of “htau23 phosphorylated with the brain extract kinase activity (full, stage 3, 24 hours) (from UniProt P10636 1-352)”, the Dn (difference in stoichiometry upon phosphorylation) (tau/tubulin dimer) in test [6] is 0.33. In test [5], this substance returned an equilibrium dissociation constant (Kd) of 4.9 µM and a stoichiometry n (tau/tubulin dimer) (tau/tubulin dimer) of 0.16.

“htau23 mutant Ser262-Ala phosphorylated with brain extract (from UniProt P10636 1-352)” yielded a Dn (difference in stoichiometry upon phosphorylation) (tau/tubulin dimer) in test [6] of 0.04. In test [5], the Kd is 5.3 µM and the stoichiometry n (tau/tubulin dimer) (tau/tubulin dimer) is 0.45.
